Reference: patent publication US20180355059A1 (PHARMAEXPLORER, published 2018)

How the values were obtained:
[1] = target: T1, recombinant human PCSK9 protein, His-tagged (Immunogen A, hPCSK9-His) (human, UniProt Q8NBP7 31-692, limits assumed, biotin-labelled in the ELISA and blocking assays (Biotin labeling kit)); experiment: ELISA, biotin-hPCSK9-His on streptavidin plate; antibody 0.67 nM
T1 construct: also called human PCSK9-His; recombinant hPCSK9-His; not shown: His tag

[2] = target: T1, recombinant human PCSK9 protein, …; experiment: ELISA, biotin-hPCSK9-His on streptavidin plate; antibody 6.67 nM
Method: (§1) The next day, the plates were washed twice with wash buffer [0.01% (v/v) Tween 20], then blocked with blocking buffer [0.01% (v/v) 0.1% BSA (w/w) Tween 20] at room temperature for 2 hours. […] Unbound PCSK9 proteins were removed by washing the plate three times with wash buffer [0.01% (v/v) Tween 20]. […] The plates were washed twice with wash buffer [0.01% (v/v) Tween 20], and 200 uL HRP-conjugated secondary antibody (Sigma) was added to each well and incubated for 2 hours at 37° C. After the plates were washed three times with wash buffer, 100 ul TMB substrate were added to each well and incubated for 30 minutes at room temperature. 100 ul stop solution (0.1N HCl) were added to each well to stop the reaction.

[3] = target: T2, recombinant cyno monkey PCSK9 protein (cyno monkey, UniProt A8T666 31-692 (rhesus entry), limits assumed, biotin-labelled in the ELISA (Biotin labeling kit)); experiment: ELISA, biotin-cyno PCSK9 on streptavidin plate; antibody 0.67 nM
T2 construct: also called cyno PCSK9; Cyno Monkey PCSK9-His
Method: as §1

[4] = target: T2, recombinant cyno monkey PCSK9 protein; experiment: ELISA, biotin-cyno PCSK9 on streptavidin plate; antibody 6.67 nM
Method: as §1

[5] = target: T1, recombinant human PCSK9 protein, …; experiment: ELISA, biotin-hPCSK9-His on streptavidin plate; antibody 66.67 nM
Method: as §1

[6] = target: T2, recombinant cyno monkey PCSK9 protein; experiment: ELISA, biotin-cyno PCSK9 on streptavidin plate; antibody 0.067 nM
Method: as §1

[7] = target: T2, recombinant cyno monkey PCSK9 protein; experiment: ELISA, biotin-cyno PCSK9 on streptavidin plate; antibody 66.67 nM
Method: as §1

[8] = target: T1, recombinant human PCSK9 protein, …; experiment: ELISA, biotin-hPCSK9-His on streptavidin plate; antibody 0.0067 nM
Method: as §1

[9] = target: T2, recombinant cyno monkey PCSK9 protein; experiment: ELISA, biotin-cyno PCSK9 on streptavidin plate; antibody 0.0067 nM
Method: as §1

[10] = target: T1, recombinant human PCSK9 protein, …; experiment: ELISA, biotin-hPCSK9-His on streptavidin plate; antibody 0.00067 nM
Method: as §1

[11] = target: T2, recombinant cyno monkey PCSK9 protein; experiment: ELISA, biotin-cyno PCSK9 on streptavidin plate; antibody 0.00067 nM
Method: as §1

[12] = target: T1, recombinant human PCSK9 protein, …; experiment: ELISA, biotin-hPCSK9-His on streptavidin plate; antibody 0.000067 nM
Method: as §1

[13] = target: T2, recombinant cyno monkey PCSK9 protein; experiment: ELISA, biotin-cyno PCSK9 on streptavidin plate; antibody 0.000067 nM
Method: as §1

[14] = target: T1, recombinant human PCSK9 protein, …; experiment: ELISA, biotin-hPCSK9-His on streptavidin plate; antibody 0 nM (blank)
Method: as §1

[15] = target: T2, recombinant cyno monkey PCSK9 protein; experiment: ELISA, biotin-cyno PCSK9 on streptavidin plate; antibody 0 nM (blank)
Method: as §1

[16] = target: T1, recombinant human PCSK9 protein, …; experiment: blocking ELISA, biotin-hPCSK9-His on coated LDLR ECD-His; antibody 8 nM
Method: (§2) Purified LDLR^ECD-His was diluted with PBS to a final concentration of 1.0 ug/ml, and 100 uL of diluted LDLR^ECD-His were added to each well of 96-well plate that was then sealed with plastic film and incubated at 4° C. overnight. The plate was washed twice with wash buffer [PBS+0.01% (v/v) Tween 20] and incubated with blocking buffer [PBS+0.01% (v/v) BSA+1% Tween20 (w/w)] at room temperature for 2 hours. […] The plate was washed three times with wash buffer [0.01% (v/v) Tween 20]. 100 uL HRP-conjugated streptavidin (Sigma) were then added to each well and incubated at 37° C. for 1 hour. The plate was then washed three times with wash buffer, and 100 uL TMB substrate were added to each well. After 15 minutes of incubation at room temperature, the reaction was stopped by adding 50 uL stop solution (0.1N HCl).

[17] = target: T1, recombinant human PCSK9 protein, …; experiment: blocking ELISA, biotin-hPCSK9-His on coated LDLR ECD-His; antibody 40 nM
Method: as §2

[18] = target: T1, recombinant human PCSK9 protein, …; experiment: blocking ELISA, biotin-hPCSK9-His on coated LDLR ECD-His; antibody 1.6 nM
Method: as §2

[19] = target: T1, recombinant human PCSK9 protein, …; experiment: blocking ELISA, biotin-hPCSK9-His on coated LDLR ECD-His; antibody 200 nM
Method: as §2

[20] = target: T1, recombinant human PCSK9 protein, …; experiment: blocking ELISA, biotin-hPCSK9-His on coated LDLR ECD-His; antibody 0.01 nM
Method: as §2

[21] = target: T1, recombinant human PCSK9 protein, …; experiment: blocking ELISA, biotin-hPCSK9-His on coated LDLR ECD-His; antibody 0.06 nM
Method: as §2

[22] = target: T1, recombinant human PCSK9 protein, …; experiment: blocking ELISA, biotin-hPCSK9-His on coated LDLR ECD-His; antibody 0.32 nM
Method: as §2

[23] = target: T1, recombinant human PCSK9 protein, …; experiment: ELISA, biotin-hPCSK9-His on streptavidin plate; antibody 0.067 nM
Method: as §1

T2 sequence (A8T666 31-692 limits assumed): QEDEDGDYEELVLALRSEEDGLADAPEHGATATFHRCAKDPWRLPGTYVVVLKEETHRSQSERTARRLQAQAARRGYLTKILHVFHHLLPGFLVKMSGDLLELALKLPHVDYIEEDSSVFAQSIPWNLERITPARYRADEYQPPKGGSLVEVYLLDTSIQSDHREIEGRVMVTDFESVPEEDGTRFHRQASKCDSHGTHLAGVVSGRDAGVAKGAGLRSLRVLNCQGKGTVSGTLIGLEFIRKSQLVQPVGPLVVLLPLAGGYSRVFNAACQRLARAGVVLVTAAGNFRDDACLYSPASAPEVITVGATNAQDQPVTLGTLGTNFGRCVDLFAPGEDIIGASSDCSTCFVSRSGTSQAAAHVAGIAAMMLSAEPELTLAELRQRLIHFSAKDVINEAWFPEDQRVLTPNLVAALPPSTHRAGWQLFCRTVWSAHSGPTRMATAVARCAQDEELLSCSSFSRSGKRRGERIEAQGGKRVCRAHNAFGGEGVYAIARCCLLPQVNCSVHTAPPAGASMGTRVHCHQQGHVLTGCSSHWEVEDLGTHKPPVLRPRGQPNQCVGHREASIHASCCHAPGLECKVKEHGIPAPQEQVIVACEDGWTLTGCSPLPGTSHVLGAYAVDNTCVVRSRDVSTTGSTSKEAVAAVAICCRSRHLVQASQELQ

| Binder | OD450 nm [1] | OD450 nm [2] | OD450 nm [3] | OD450 nm [4] | OD450 nm [5] | OD450 nm [6] | OD450 nm [7] | OD450 nm [8] | OD450 nm [9] | OD450 nm [10] | OD450 nm [11] | OD450 nm [12] | OD450 nm [13] | OD450 nm [14] | OD450 nm [15] | OD450 nm (PCSK9 bound to LDLR) [16] | OD450 nm (PCSK9 bound to LDLR) [17] | OD450 nm (PCSK9 bound to LDLR) [18] | OD450 nm (PCSK9 bound to LDLR) [19] | OD450 nm (PCSK9 bound to LDLR) [20] | further results |
| --- | --- | --- | --- | --- | --- | --- | --- | --- | --- | --- | --- | --- | --- | --- | --- | --- | --- | --- | --- | --- | --- |
| 74C10A8, chimeric anti-PCSK9 mAb purified from hybridoma (antibody, V domains shown, From Harbour H2L2 mice: human variable regions, rat constant regions) VH: QVQLQESGPGLVKPSETLSLTCSVSGGSINTYYWSWIRQPPGKGLEWIGYIYYSGSTNYNPSLKSRVTISVDTSKNQFSLKLTSVTAADTAVYYCARERFTMVRGVMMDYYYYGMDVWGQGTTVTVSS VL: DIQLTQSPSFLSASVGDRVTITCRASQGISSYLAWYQQKPGKAPKLLIYAASTLQSGVPSRFSGSGSGTEFTLTISSLQPEDFATYYCQQLNSYPRTFGQGTKVEIK | 2.89 OD450 nm | 2.99 OD450 nm | 2.53 OD450 nm | 2.86 OD450 nm | 2.98 OD450 nm | 0.76 OD450 nm | 2.89 OD450 nm | 0.3 OD450 nm | 0.27 OD450 nm | 0.17 OD450 nm | 0.34 OD450 nm | 0.19 OD450 nm | 0.18 OD450 nm | 0.22 OD450 nm | 0.21 OD450 nm | 0.78 OD450 nm | 0.68 OD450 nm | 0.97 OD450 nm | 0.55 OD450 nm | 1.34 OD450 nm | OD450 nm (PCSK9 bound to LDLR) [21]: 1.3 OD450 nm; OD450 nm (PCSK9 bound to LDLR) [22]: 1.2 OD450 nm |
| 76A1B11, chimeric anti-PCSK9 mAb purified from hybridoma (antibody, V domains shown, From Harbour H2L2 mice: human variable regions, rat constant regions) VH: QVQLVESGGGVVQPGRSLRLSCAATGFTFSIYGMHWVRQAPGKGLEWVAVIWYDGSNKYYADSVKGRFIISRDNSKNTLYLQMNSLRVEDTAVYYCVSDYFGSGNSYYYYGMDVWGQGTTVTVSS VL: DIQMTQSPSSLSASVGDRVTITCRASQVISNYLAWYQQKPGKVPKLLIYTASTLQSGVPSRFSGSGSGADFTLTISSLQPEDVATYYCQKYNSAPYTFGQGTKLEIK | 2.66 OD450 nm | 2.85 OD450 nm | 2.5 OD450 nm | 2.82 OD450 nm | 2.85 OD450 nm | 0.81 OD450 nm | 2.88 OD450 nm | 0.27 OD450 nm | 0.26 OD450 nm | 0.21 OD450 nm | 0.23 OD450 nm | 0.2 OD450 nm | 0.21 OD450 nm | 0.18 OD450 nm | 0.19 OD450 nm | 0.7 OD450 nm | 0.59 OD450 nm | 0.96 OD450 nm | 0.55 OD450 nm | 1.29 OD450 nm | OD450 nm [23]: 0.86 OD450 nm; OD450 nm (PCSK9 bound to LDLR) [21]: 1.18 OD450 nm; OD450 nm (PCSK9 bound to LDLR) [22]: 1.19 OD450 nm |

The next lines start with results.

| OD450 nm [1] | OD450 nm [2] | OD450 nm [3] | OD450 nm [4] | OD450 nm [5] | OD450 nm [6] | OD450 nm [7] | OD450 nm [8] | OD450 nm [9] | OD450 nm [10] | OD450 nm [11] | OD450 nm [12] | OD450 nm [13] | OD450 nm [14] | OD450 nm [15] | OD450 nm (PCSK9 bound to LDLR) [16] | OD450 nm (PCSK9 bound to LDLR) [17] | OD450 nm (PCSK9 bound to LDLR) [18] | OD450 nm (PCSK9 bound to LDLR) [19] | OD450 nm (PCSK9 bound to LDLR) [20] | Binder | further results |
| --- | --- | --- | --- | --- | --- | --- | --- | --- | --- | --- | --- | --- | --- | --- | --- | --- | --- | --- | --- | --- | --- |
| 2.87 OD450 nm | 2.94 OD450 nm | 2.67 OD450 nm | 2.88 OD450 nm | 2.93 OD450 nm | 1 OD450 nm | 2.9 OD450 nm | 0.36 OD450 nm | 0.27 OD450 nm | 0.21 OD450 nm | 0.26 OD450 nm | 0.19 OD450 nm | 0.23 OD450 nm | 0.22 OD450 nm | 0.2 OD450 nm | 0.61 OD450 nm | 0.67 OD450 nm | 0.89 OD450 nm | 0.63 OD450 nm | 1.06 OD450 nm | 139G1C5, chimeric anti-PCSK9 mAb purified from hybridoma (antibody, V domains shown, From Harbour H2L2 mice: human variable regions, rat constant regions) VH: QVQLQESGPGLVKPSGTLSLTCAVSGGSISRNNWWSWVRQPPGKGLEWIGEIYHSGSTNYNPSLKSRVTISVDKSKNQFSLKLSSVTAADTAVYYCARDLLGIGLDYWGQGTLVTVSS VL: EFVLTQSPATLSLSPGERAILSCRASQSFSSYIAWYQQKPGQAPRLLIYDASNRATGIPARFSGSGSGTDFTLTISSLEPEDFAVYYCQQHSNWMYTFGQGTKLEIK | OD450 nm [23]: 1.55 OD450 nm; OD450 nm (PCSK9 bound to LDLR) [21]: 1.13 OD450 nm; OD450 nm (PCSK9 bound to LDLR) [22]: 1.11 OD450 nm |
| 2.42 OD450 nm | 2.91 OD450 nm | 1.25 OD450 nm | 2.67 OD450 nm | 2.91 OD450 nm | 0.35 OD450 nm | 2.93 OD450 nm | 0.25 OD450 nm | 0.2 OD450 nm | 0.21 OD450 nm | 0.21 OD450 nm | 0.18 OD450 nm | 0.27 OD450 nm | 0.17 OD450 nm | 0.33 OD450 nm | 0.94 OD450 nm | 0.74 OD450 nm | 1.2 OD450 nm | 0.7 OD450 nm | 1.26 OD450 nm | 152G2F7, chimeric anti-PCSK9 mAb purified from hybridoma (antibody, V domains shown, From Harbour H2L2 mice: human variable regions, rat constant regions) VH: EVQLVESGGGLVQPGGSLRLSCAASEFTFGGYWMTWVRQAPGKGLEWVANIKQDGSEKYYVDSVKGRFTISRDNAKNSLYLHMNSLRAEDTAVYYCARDRTTMIRGVSLYYYYYGMDVWGQGTAVTVSS VL: EIVLTQSPATLSLSPGERATLSCRASQSVSSYLAWYQQKPGQAPRLLIYDASNRATGIPARFSGSGSGTDFTLTISSLEPEDFAVYYCQQRSNWPLTFGGGTKVEIK | OD450 nm [23]: 0.6 OD450 nm; OD450 nm (PCSK9 bound to LDLR) [21]: 1.2 OD450 nm; OD450 nm (PCSK9 bound to LDLR) [22]: 1.17 OD450 nm |
